{"source": "patent US20200010567A1", "about": "(NEURIMMUNE, published 2020)", "key": {"[1]": {"biological_target": "T1, (GA)15: H-CHHHHHH(GA)15-OH", "T1 construct": "synthetic, not coupled to BSA; also called poly-GA DPR protein peptide", "T1 peptide": "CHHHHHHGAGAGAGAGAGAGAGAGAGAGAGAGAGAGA", "assay": "indirect ELISA, uncoupled peptide coated, antibody titrated [also D00010 FIG. 2H]", "method": "(§1) In brief, dipeptide repeat proteins were synthesized and purified by Schafer-N(Copenhagen, Denmark): (GA)₁₅: H-CHHHHHH(GA)₁₅-OH; (GP)₁₅: H-C(GP)₁₅-OH; (GR)₁₅: H-C(GR)₁₅-OH; (PA)₁₅: H-C(PA)₁₅-OH; (PR)₁₅: H—C(PR)₁₅-OH. 96-well microplates (Corning Incorporated, Corning, USA) were coated with dipeptide repeat protein peptides at a concentration of either 5 μg/ml or 20 μg/ml in coating buffer (15 mM Na₂CO₃, 35 mM NaHCO₃, pH 9.42). Non-specific binding sites were blocked for 1 h at room temperature with PBS/0.1% Tween®-20 containing 2% BSA (Sigma-Aldrich, Buchs, Switzerland). Primary antibodies were diluted to the indicated concentrations and incubated for 1 h at room temperature, followed by incubation with a donkey anti-human IgG Fcγ-specific antibody conjugated with HRP (Jackson ImmunoResearch Laboratories, Inc., West Grove, USA). Binding was determined by measurement of HRP activity in a standard colorimetric assay. EC₅₀ values were estimated by non-linear regression using GraphPad Prism software (San Diego, USA). The binding specificity and EC₅₀ of human-derived antibodies for C9orf72 dipeptide repeat protein peptides (GA)₁₅, (GP)₁₅, (GR)₁₅, (PA)₁₅ and (PR)₁₅ were determined by indirect ELISA."}, "(PA)15: H-C(PA)15-OH": {"biological_target": "T2, (PA)15: H-C(PA)15-OH", "T2 construct": "synthetic, not coupled to BSA; also called poly-PA DPR protein peptide", "T2 peptide": "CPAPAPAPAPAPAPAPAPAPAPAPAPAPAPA", "assay": "indirect ELISA, uncoupled peptide coated, antibody titrated [also D00015 FIG. 3K]", "method": "as §1, with “(PR)₁₅: H—C(PR)₁₅-OH. DPR protein peptides were then conjugated via a bifunctional linker (SMCC) to bovine serum albumin (BSA). 96-well microplates” for “(PR)₁₅: H—C(PR)₁₅-OH. 96-well microplates”, “coated with BSA-coupled or -uncoupled dipeptide repeat” for “coated with dipeptide repeat”, “and incubated 1 h” for “and incubated for 1 h”, “Diego, USA).” for “Diego, USA). The binding specificity and EC₅₀ of human-derived antibodies for C9orf72 dipeptide repeat protein peptides (GA)₁₅, (GP)₁₅, (GR)₁₅, (PA)₁₅ and (PR)₁₅ were determined by indirect ELISA.”"}, "GA2: H-(GA)2HHHHHH-NH2": {"biological_target": "T3, GA2: H-(GA)2HHHHHH-NH2", "T3 peptide": "H-GAGAHHHHHH-NH2", "assay": "indirect ELISA, His-tagged peptide coated at 50 ug/ml, antibody titrated [also D00025 FIG. 7I]", "method": "(§2) 96-well microplates (Corning Incorporated, Corning, USA) were coated with dipeptide repeat protein peptides at a concentration of 50 μg/ml in coating buffer (15 mM Na₂CO₃, 35 mM NaHCO₃, pH 9.42). Non-specific binding sites were blocked for 1 h at room temperature with PBS/0.1% Tween®-20 containing 2% BSA (Sigma-Aldrich, Buchs, Switzerland). Primary antibodies were diluted to the indicated concentrations and incubated 1 h at room temperature, followed by incubation with a donkey anti-human IgG Fcγ-specific antibody conjugated with HRP (Jackson ImmunoResearch Laboratories, Inc., West Grove, USA). Binding was determined by measurement of HRP activity in a standard colorimetric assay. EC₅₀ values were estimated by non-linear regression using GraphPad Prism software (San Diego, USA).\n(§3) High affinity binding was detected for poly-GA DPRs harboring 10 or 20 (GA)-repeats, reflected in an EC₅₀ in the subnanomolar or low nanomolar range (FIGS. 7A, 7C-7I)."}, "GA4: H-(GA)4HHHHHH-NH2": {"biological_target": "T4, GA4: H-(GA)4HHHHHH-NH2", "T4 peptide": "H-GAGAGAGAHHHHHH-NH2", "assay": "indirect ELISA, His-tagged peptide coated at 50 ug/ml, antibody titrated [also D00025 FIG. 7I]", "method": "as §2, §3"}, "GA3: H-(GA)3HHHHHH-NH2": {"biological_target": "T5, GA3: H-(GA)3HHHHHH-NH2", "T5 peptide": "H-GAGAGAHHHHHH-NH2", "assay": "indirect ELISA, His-tagged peptide coated at 50 ug/ml, antibody titrated [also D00025 FIG. 7I]", "method": "as §2, §3"}, "GA5: H-(GA)5HHHHHH-NH2": {"biological_target": "T6, GA5: H-(GA)5HHHHHH-NH2", "T6 peptide": "H-GAGAGAGAGAHHHHHH-NH2", "assay": "indirect ELISA, His-tagged peptide coated at 50 ug/ml, antibody titrated [also D00025 FIG. 7I]", "method": "as §2, §3"}}, "data": [{"binder": "NI-308.46E9 (antibody, V domains shown, Recombinant complete human IgG1, kappa) VH: QVQLQESGPGLVKPSETLSLTCTVSGASISGSTYYWGWIRQPPGKGLEYIGRIYYSGSTYYNPSLKSRATISVDTSKNQLSLTLSSVTAADTAVYYCVRPFYAGSGNSPFDYWGQGTLVTVSS VL: CEIVLTQSPATVSVSPGERATLSCRASQSVSTNLAWYQQKPGQPPRLLIYGASTRATGIPARFSGSGSGAEFTLTISSLQSEDFVVYYCQQYNNWPPAFGGGTKVEIK", "values": [{"measurement": "EC50", "setting": "[1]", "result": "> 200000", "unit": "pM"}]}, {"binder": "NI-308.4M1 (antibody, V domains shown, Recombinant complete human IgG1, kappa) VH: EVQLVETGGGVVQPGGSLRLSCEASGFTIGTYAMHWVRQFPGKGLDWVAVISFDGTTEYYTDAVKGRFTISRDNAKNTLYLQMNYLRGDDTAIYFCARDFTSSGETGSWTQVPDLWGQGTLVTVSS VL: CEIVMTQSPATLSLSPGERATLSCRASQSVTKYLAWYQQKPGQAPRLLIYDVSYRAAGTPARFSGSGSGTDFTLTISSLEPEDFAVYYCHQRSSWPPVTFGGGTKVEIK", "values": [{"measurement": "EC50", "setting": "(PA)15: H-C(PA)15-OH", "result": 100, "unit": "pM"}]}, {"binder": "NI-308.45C2 (antibody, V domains shown, Recombinant complete human IgG1, kappa) VH: QLQLQESGPGLVKPSQILSLTCAISGDSVFSNSAAWNWIRQSPSRGLEWLGRTYYRSKWDNDYAPSVKSRISINPDTSKNQFSLQLNSVTPEDTAVYYCAREVAYCGGDCYSVSFDYWGQGTLVTVSS VL: not shown", "values": [{"measurement": "binding result", "setting": "GA2: H-(GA)2HHHHHH-NH2", "result": "no binding (tested: about 4x10^5 pM (last point))"}, {"measurement": "binding result", "setting": "GA4: H-(GA)4HHHHHH-NH2", "result": "no binding (tested: about 4x10^5 pM (last point))"}, {"measurement": "binding result", "setting": "GA3: H-(GA)3HHHHHH-NH2", "result": "no binding (tested: about 4x10^5 pM (last point))"}, {"measurement": "binding result", "setting": "GA5: H-(GA)5HHHHHH-NH2", "result": "no binding (tested: about 4x10^5 pM (last point))"}]}]}
